Results reported in paper PMC2637605.

Test system: Foxi1 (FOXI1)
Test: competition EMSA
Conditions: unlabeled wt competitor; 5 mM HEPES pH 7.9, 100 mM KCl, 26% glycerol, 1.5 mM MgCl2, 0.2 mM EDTA, 0.5 mM DTT, 0.5 mM PMSF, 500 ng poly dI:dC, room temperature 15 min; 6% native gel …; scale: fold molar excess for effective competition

How did the competitor fold molar excess for effective competition turn out when ATP6V0A4 Fk1-3 wt (-561/-547) was run?
Its competitor fold molar excess for effective competition is 10.
